Results taken from the DeepSol protein solubility set.

Test: soluble on expression in E. coli; label from the status in PepcDB or PDB records

Sequence	soluble on expression in E. coli
MVSIRRSFEAYVDDMNIITVLIPAEQKEIMTPPFRLETEITDFPLAVREEYSLEAKYKYVCVSDHPVTFGKIHCVRASSGHKTDLQIGAVIRTAAFDDEFYYDGELGAVYTADHTVFKVWAPAATSAAVKLSHPNKSGRTFQMTRLEKGVYAVTVTGDLHGYEYLFCICNNSEWMETVDQYAKAVTVNGEKGVVLRPDQMKWTAPLKPFSHPVDAVIYETHLRDFSIHENSGMINKGKYLALTETDTQTANGSSSGLAYVKELGVTHVELLPVNDFAGVDEEKPLDAYNWGYNPLHFFAPEGSYASNPHDPQTRKTELKQMINTLHQHGLRVILDVVFNHVYKRENSPFEKTVPGYFFRHDECGKPSNGTGVGNDIASERRMARKFIADCVVYWLEEYNVDGFRFDLLGILDIDTVLYMKEKATKAKPGILLFGEGWDLATPLPHEQKAALANAPRMPGIGFFNDMFRDAVKGNTFHLKATGFALGNGESAQAVMHGIAGSSGWKALAPIVPEPSQSINYVESHDNHTFWDKMSFALPQENDSRKRSRQRLAVAIILLAQGVPFIHSGQEFFRTKQGVENSYQSSDSINQLDWDRRETFKEDVHYIRRLISLRKAHPAFRLRSAADIQRHLECLTLKEHLIAYRLYDLDEVDEWKDIIVIHHASPDSVEWRLPNDIPYRLLCDPSGFQEDPTEIKKTVAVNGIGTVILYLASDLKSFA	soluble
MVSLRELRGGLMSNKYCQALVELRNKPAHELKEVGDQWRTPDNIFWGINTLFGPFVLDLFTDGDNAKCAAYYTAEDNALAHDWSERLAELKGAAFGNPPYPWLEHHHHHH	not soluble
MVSLRSGKRVSRPSPSTPLEKPAETSTNPMETPKRAVKGQKTVEEKEKLPISLRKSERLAKNSGENSSAEIAEEHKEIVAPSQENSVDDDAESTQLSVDVFADPSDFEDDDDEVVPETDYEDNNEEPKNDQNPVEIPDNSDSDDDEPMEISSKNPVTSIENPENSDSDDDEPMEATSKAPEMSVAEPKSIIEKLLEKKAEKSAKLAAKKLKKRSKKKEAKKISDGVFQVKMKKSKAKFNVVTLKAGVQNILEPQINFREELLKSRTAGTRLADTEKFLQRGKWVSKR	soluble
MVSLRTSNRGIVMIDAVVTWVDGADPAHHAKRLRHQGEAGVHQAATAPTRFAHSGEIRFCVLSLLRFCPFVERIHIVTDDQHPAVLDPILDDPHWRDRIAVVDHRAIYGEHADLLPVFSSRSIETMIHRIPGLAPRFIYLNDDIFVGRPLDESHFFDGDRAVLRGRMQPFPNPLVTRLKRWLKRERPGYKTAQQAAARLTGRTSDYFLTEHQPHPMHRDRLASFYAGDPQALRRQAGHRFRSADQVSPIGLANHLEIEARAVIAPPLDVGYIRPGRPTGTALARTMERLCANGYASFCVQSLDAMSEADRRCVLEGLERHYALEHHHHHH	soluble
MVTEFAKEMIKNADSCGAQDIYVIPRQDNYELYMRVGQERRLIDVYRPDFMASLIGHFKFVAGMMVGEKRRSQLGSCDYDCGDGHLVSLRLSTVGDYRGLESLVIRILH	not soluble
MVTFLGNPVSFTGKQLQVGDKALDFSLTTTDLSKKSLADFDGKKKVLSVVPSIDTGICSTQTRRFNEELAGLDNTVVLTVSMDLPFAQKRWCGAEGLDNAIMLSDYFDHSFGRDYALLINEWHLLARAVFVLDTDNTIRYVEYVDNINSEPNFEAAIAAAKAL	soluble
MVTIANDFLTVKISRHGAELTSIKDNLTGRERLWQADPAVWGRHAPVLFPIVGALADNQYHYAGKTYHMGQHGFARDRDFTVLSATPFKASFVLKDDDKTRAMYPFAFRLIITFALENNNLHVTYHVDNPDKSEPLFFSIGGHPGFKVPMTPDTQFSDYYLNFKPRKSLVQIPLVAGEGIDYTHRTLAATDANLALTHETFDHDALIFALLGKTTFNLVSDKTKHGVSVTMTDTPYLGVWSPYPTTGDFVCIEPWWGIADTIGSTGDLTRKLGINRLEPGTAFEKGYMISIFLEHHHHHH	not soluble
MVTPVSICNYISLPDDFPARNIAPQVKEVLKDFIDALSTIICDEEWRTSLNTNSATKKIFNNLDNLSYIQRTSFRGNDTLYNEKVQFKLTYPVKNGRHKENIEFQVVINLSPIYLDNFRHDGEINIFCAPNPKPVTMGRVFQTGVERVLFLFMNDFIEQFPMINLGAPIKRAHTPHIEPLPPDHHTAADYLRQFDLLVLNFISRGNFVILPRLWNNSEVHRWFVNKDPNLITAILDITDSELKEDLLQSLMDSLGSNKHVQPEVCICFLSLLAEQESPHFQDLFLFFANMLLHYHQFMNPNESDLNDVLMPASLSDDKIIKHMARRTLKLFVKNETPPKVTHEDLVKNRPRSPVRPPIPATAKTPDLPERH	not soluble
MVTVVDRVTDRRLRHPEKAHRPDTSVQKKPDWIRVKAPTSQVYKETHGIVRAHKLVTVCEEAGCPNIGECWSQRHASFMILGEICTRACAFCNVATGIPFAVDENEPERVADAVARMELKHVVITSVDRDDLADGGAEHFAKVIYAIRRKAPKTTIEVLTPDFRHKDGALEIVVAAKPDVFNHNLETVPSKYLKVRPGARYFHSIRLLQRVKELDPTIFTKSGIMVGLGEERNEILQLMDDLRSADVDFMTIGQYLQPTRKHHPVIRFVPPEEFESFAKIGKVKGFLHMASNPLTRSSHHAGDDFAILQKARDEKFALQR	not soluble
MVVRVDETTAPLFRQIAALIEDSIVEGSLSSGERAPSTNELAAFHSINPATARKGLQLLVDAGVLEKKRGLGMFVTDNAVELIRGRRRDDFAAAYLAPLVDEAVKLTISKTELHNLIDRVAESRGLYE	soluble
MVWSATSRTKYSIKKSFFGCSMIELSNVNLHYPVPGHFSHSLQTTISSKIGGVLGSSSAKDKEMKYVHALRDINLKLEDSSRLGIIGHNGAGKTTLLRLLSQVYPPTSGKVTIEGKISALTDFTLGMDPNATGLKNIEFRLVFMGCTFKEAQQAVEEIVAFSELGEFINLPVRTYSTGMFLRLAFAISTHFTPDILILDEVIGAGDETFREKALSRLESLIKKSRMVVLSSHDLNAIKQYCDQAIVMEKGEIVFNGTPQSCIDYYLNSVKK	not soluble
MWAVIRMRTFRRSTRNAVSRMRKPKPRASAKQRSLERHFGSRQPTKNKFLNAIYWGIRRCQYFLCCYDDEVEDELEDASANPFNTQPPGLDQLVQLTGFNRKWIMFMYRNFKQKCSNGRMTDSQWRILFRSIFPQANDSAFIDRLYAAIVKKKQHPQITFEDLILCLWELSEDGKTSEMGNYHINSSARAQFAFQLMDEEGKGRVDEPGFYKYTRCVFALTAVNKPCTDQIIDASTIGLPASSIYRSTSVDDVLKPMSPLIARFSSKRFKELDTDRDGFITVRDIERELEIQKNEAICLKSLKDFSFEDLKNEEDDDDEDDQDTNPLLSESSSFKKDV	not soluble
MWHGMGDCCCNPLSMGSVKKLFEEQIPGVYVHSLQLGSSITKDIEHGFYANTNELVYMACIKIKNDPELKNGYNAIGFSQGAQFLRAVAQRCPNPPMKNLVSVGGQHQGVFGAPYCIGDNIMCNGVRRLIDLGAYLPFVQKRVVQAQYWHDPNQVEEYKKRSIFLADINNENNNNPTYKRNLLSLKNLVLVKFNQDHMVVPKDSSWFGFYKDGDIDTILPMNETDLYKEDRIGLKKLHESGRIHFMDVDGDHLQIPRSVLVNDIIKKYFM	not soluble
MWKRIALFLVVLLLAACGKTIPDAKNWPVEDFTFVDQTGKPFGLRDLKGKVWVADFIFTNCETVCPPMTAHMAKLKQMAKKEGLDVEFVSFSVDPEVDTPEKLAAYAKQFTDDLSNWHLLTGYSPAEISELAQKSFKTIVQKPANDDQVVHGTSFYLVGPDGKVVQTYSGVQDVPYETILEHIKIVQSSQ	not soluble
MWLPTPLGPLWLEVSPLGVRRLEPALYPRGPEAEGALALRVREAVQAYFAGERPDFLDLPLDYTGLSPARLRLYERVRLVPYGRTVSYGALGRELGLSPRAVGAALRACPFFLLVPAHRVIHADGRLGGFQGQEGLKLWLLRFEGAL	soluble
MWPAPRRVNLRSLGIAWPSPGGLDTLASNFPSEGCQNMNLYSLLSARAAGGKPVRVGLIGAGKFGSMVLAQAQRIAGFHMVAVADLNVGKARESFDRVGWPKERYDATSCADALKSGKTYVTDDVNELFACGEIECIIEATGHPLAGARHALGAIDHNKHVVMVNVEADVMVGPILAEKARAKGLIYSMAYGDQPALICELVDWARATGFEVVSAGKGMNFEPRYRYSTPDTVWSYFGWTDEEVAKGDFNPKMYNSFTDGTKAAIEMAAVANGTGLDCPDDGLAFPPAGLHDLARVFRPAADGGRMSRSGLVDIAASQEPDGREVFNNIRYGVFVTFKAHNDYARACFKQYGLLTDPSGWYASMWRPFHIIGLETSISVLSAVLRNEPTGCSKEFRGDAVATAKKDMQPGEMLDGEGGYAVWANAIPATRSLDIKALPIGLAHNVKLKRPIKKDQIVSFDDVELVSDLDVVKLRQDMEHQFRPQKDAAA	not soluble
MWRLIYSLLFLIPGAAMAGAQVYEPLSASTRTVLHRTISDQAVPMLVTLPGPEAKDWLDSMTKRLEKRISDIEERRAFLITVHYEATRAGLDPELVLSIIQVESNFRKYAVSSAGARGYMQVMPFWVDTIGNPEHNLFHLRVNLRYGCTILRHYLDLEQGDYFRALGRYNGSLGKAGYPNLVFNAWHRHWTYSTASQ	not soluble
MWRLYRKTPKQLRNSVESCFKSVNSRQFSVSSFSAVAKDDKSVLKQQEVLHLLAKDQRFEERFFNQVQQTIRYFASKPNDLKKFFRKEASTDNKESSSSSDKKDSKGNKGEDNNPFNQFPGGWQQIAVSVGILLALYAFMDYQSYREISWKEFYSDFLEAGLVERLEVVDKRWVRIVSSSGKYAGQTCYFNIGSVDSFERSLGAAQHHLQYDADRQIPVLYKSEFNFKREIPNLISVAFPLLFGYYIYRMLKGGGAAGGAGRAGGGGLGGMFGGFGQSTARVINREDIKVKFADVAGCEEAKIEIMEFVNFLKNPQQYKDLGAKIPKGAILTGPPGTGKTLLAKATAGEANVPFITVSGSEFLEMFVGVGPARVRDMFSMARKNSPCILFIDEIDAVGRKRGGKGGMGGHSEQENTLNQLLVEMDGFTTDESSVIVIAATNRVDILDSALLRPGRFDRQIYVPVPDIKGRASIFRVHLGPLRTSLDKTVLSRKLAAHTPGFSGADISNVCNEAALIAARDANHEISNKHFEQAIERVVAGMEKKTQVLQKEEKKTVAYHEAGHAIAGWFLQHADPLLKVSIIPRGKGLGYAQYLPKEQYLYSKDQLLDRMCMTLGGRVAEEIFFGRITTGAQDDLQKVTQMAYSQVVKFGMSEKVGPLSFETPAPGEMAFDKPYSEATAQLIDQEVRDLVMNALRRTRDLLLEKRSDIERVALRLLEKEILNREDMIELVGKRPFVEKNTYEEMVSGTGGLDENVELPKGLENWNKESEKKKKDEEKKKNDE	not soluble
MWRVGVYSSLRGYKRLNFCCEMLIAAYPKVGECAREGLMDKEVCINAAKGRFLGLRLPELFGGSDMRLNRSCRRRNMKLAAWCMLIQCDSRGGNHAAEVREIGDITKIAICQQCDFECAGPSANFKVTRLQGLRTLKAANRSESLNVEGCYALQSLLM	not soluble
MWVDGMAKVVEVGRICVKTRGREAGRKCVIVDIIDENFVLVTGPKSLTGVRRRRVNIDHIEILDKKVDIQKGASDEEVLKALEEAGLADFMREPVRIARITPFTLLEHHHHHH	not soluble
MWYGLGLAFLGGIFRIFPFDMEHTITRQIFCPWLFAFSMTRKQFQGRKPYNYLASFLLFQCRLKESFHGQLVKPIVSWNLWTHRYHNGCFR	not soluble
MYAMNLARYKYCPDIKEKGLSGSPRLILFTSAECHYSMKKAASFLGIGTENVCFVETDGRGKMIPEELEKQVWQARKEGAAPFLVCATSGTTVLGAFDPLDEIADICERHSLWLHVDASWGGSALMSRKHRKLLHGIHRADSVAWNPHKMLMAGIQCCALLVKDKSDLLKKCYSAKASYLFQQDKFYDVSYDTGDKSIQCSRRPDAFKFWMTWKALGTLGLEERVNRALALSRYLVDEIKKREGFKLLMEPEYANICFWYIPPSLREMEEGPEFWAKLNLVAPAIKERMMKKGSLMLGYQPHRGKVNFFRQVVISPQVSREDMDFLLDEIDLLGKDM	soluble
